Key:
[1] = biological target: T1, human CTLA4 expressed on Jurkat T cells (CTLA4 effector cells) (human, UniProt P16410 36-223); experiment: cell-based or functional assay
T1 sequence (looked up): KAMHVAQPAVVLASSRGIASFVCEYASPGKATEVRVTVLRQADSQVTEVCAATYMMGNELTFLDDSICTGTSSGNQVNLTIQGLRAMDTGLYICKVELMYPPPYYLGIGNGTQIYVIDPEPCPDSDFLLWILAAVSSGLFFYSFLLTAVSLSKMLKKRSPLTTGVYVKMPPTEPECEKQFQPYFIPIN

[2] = biological target: FcγRII (CD32) expressed on Raji cells; experiment: cell-based or functional assay

B1: 26 F(ab')2 (synthetic) (other)
VH: QVQLKESGPGLVAPSQSLSITCTVSGFSLTSYGVYWVRQPPGKGLEWLGVIWAGGTTNYNSALMSRLSISKDNSKSQVFLKMSSLQTDDTAMYYCARGPPHAMMKRGYAMDYWGQGTSVIVSS
VL: QNVLTQSPAIMPASPGEKVTMTCSATSSITYMSWYQQKSGSSPRLLIYDTSNLASGVPVRFSGSGSGTSYSLTISRMEAEDAATYYCQQWSSYPLTFGAGTKLELK
In the case of B1, the “activity titration curve, CTLA4 blockade assay, against 26 HuIgG1” value [1] is reported as > 2 fold of 26 HuIgG1.

B2: 26 HuIgG1 (chimeric antibody: VH and VL of mouse antibody 26 on a human IgG1 scaffold) (antibody, V domains shown)
VH: B1 VH
VL: B1 VL
B2 was tested, and the “RLU ratio of the CTLA4 blockade assay with anti-CD32 antibody at 10 µg per ml” value [2] was about 50%.

Reference: patent US20250282870A1 (BIOENTRE, published 2025)
